The values that follow come from publication PMC7048787, “MCL1 binding to the reverse BH3 motif of P18INK4C couples cell survival to cell proliferation” (Cell Death & Disease, 2020).

Like-named read-outs stand apart in the source and are kept apart here. No end group written: not given here.

The test system of test [1] is WAC2 cells (MCL1 overexpressed). Put plainly: PI DNA content flow cytometry, cell cycle population of MCL1-overexpressing WAC2 cells treated with BH3 mimetics. To be noted: PI staining, N = 3, Fig. 6a; for effect on MCL1 overexpression induced decrease in G1 population: WAC2, MCL1 plasmid, then BH3 mimetic for 18 h, final DMSO 0.5%. It is filed as cell-based, human. Background: Flow cytometry measures light scatter and fluorescence of single cells or particles in a stream.

For a further test, the system named is recombinant MCL1 (rMCL1). Put plainly: In vitro pulldown of recombinant MCL1 by recombinant P18/P16 constructs. To be noted: for pull-down of recombinant MCL1: Western blot of in vitro pulldown, recombinant proteins (IP), rMCL1 (IB), Fig. 2b. It is filed as binding, human. The source says: Human MCL1 [Uniprot: Q07820] (residues 163–326), human P18 [Uniprot: P42773] (residues 1–168), A1–4 (P18 residues 1–140), A4–5 (P18 residues 106–168), P16 [Uniprot: P42771] (residues 1–156), and AC (P16 residues 1–113 and P18 residues 106–168) were sequence-optimized for bacterial expression and cloned into the restriction sites of NdeI and HindIII in a pET28a vector (EMD Millipore) to incorporate a N-terminal hexa-histidine (His6) tag and transformed into BL21(DE3) E. Coli (New England Bio Labs). Cultures were grown under kanamycin selection in Luria broth to a 600 nm optical density of 0.6 and expression was induced by addition of 1 mM isopropyl β-D-1-thiogalactopyranoside (Thermo Fisher). Cultures were harvested 3–4 h after induction by centrifugation at 4700 × g. Resulting bacterial pellets were stored at −80 °C. His6-MCL1 bacterial pellets were re-suspended (10 mL/wet g of pellet) in Buffer A (1 × PBS, pH 6.8) with the addition of 1× lysozyme (0.25 mg/mL) (Thermo Fisher) and 1 protease inhibitor tablet (Pierce #88266), sonicated, and cleared at 14,000 × g. Resulting lysate was purified on NGC FPLC (Bio-Rad Laboratories) using a 1 mL HiTrap HP nickel column (GE Healthcare) equilibrated with Buffer A. Protein was eluted with a 2 mM–1000 mM imidazole gradient. His-MCL1 containing fractions, as identified by denaturing polyacrylamide gel electrophoresis, were further purified by gel filtration in Buffer B (1× PBS, pH 6.8) on a HiPrep 16/60 Sephacryl S-100 column (GE Healthcare). Resulting protein identity was confirmed by matrix-assisted laser desorption/ionization (MALDI) mass spectrometry.
Fig. 2 MCL1 binds specifically to P18 through C-terminal rBH3. a Western blot of endogenous coIP of MCL1 (IP) with P18 (IB), BAX (IB), and P18 (IB) in WAC2. b Western blot of in vitro pulldown of recombinant proteins (IP), ANK1–4, ANK4–5, P18, p16, and chimera, with recombinant MCL1 (rMCL1) (IB). Cartoon of the p16, P18, and chimera proteins are shown below the blot. rBH3-containing helix is highlighted in yellow (Residues: 150–161). c Western blot of in vitro pulldown of recombinant P18 (IP) with rMCL1 (IB) with and without MCL1 inhibitor S63845.
P18 is a member of the INK4 protein family [P16INK4A (P16, CDKN2A), P15INK4B (P15, CDKN2B), P18INK4C (P18, CDKN2C), and P19INK4D (P19, CDKN2D)] that regulate G1/S cell cycle progression with all INK4 proteins retaining homologous CDK4/6 inhibitory function. INK4 family proteins have homologous structures containing either four or five ankyrin (ANK) repeats, a helix-turn-helix structural unit known to mediate protein-protein interactions[15],[17]. […] The rBH3 in P18 resides in its fifth ankyrin repeat (residues 141–168). […] Based on prior stability studies of ankyrin repeats within INK4 family proteins[18],[19], we designed two truncations of P18 (Supplementary Table S1). The first, P18-ANK1–4 (ANK1–4), removes the rBH3-containing fifth ankyrin repeat. The second, P18-ANK4–5 (ANK4–5), retains the rBH3 domain as well as ankyrin repeat 4 to facilitate folding.
(A western blot detects proteins with antibodies after separation by electrophoresis.)

Test [2] addresses T1, His6-MCL1 (human MCL1 residues 163-326) (human, UniProt Q07820 163-326).
T1 construct: Named His6-MCL1 in the FPA; called rMCL1 in the pull-downs; also called His-MCL1; recombinant MCL1; source: E. coli BL21(DE3), purified (nickel column, gel filtration); not shown: His6, N-terminal, kept
Put plainly: fluorescence polarisation; competition FPA: 100 nM His6-MCL1 with variable unlabeled P18 protein or peptides for 10 min at RT, then 10 nM FITC-AHX-BAK for 1 h; 1x PBS pH 7.4, 100 uL, 96-well plates. For orientation: In fluorescence polarisation assays a small probe gives low polarisation when free and higher when bound to something large.
Target sequence in this assay (Q07820 163-326): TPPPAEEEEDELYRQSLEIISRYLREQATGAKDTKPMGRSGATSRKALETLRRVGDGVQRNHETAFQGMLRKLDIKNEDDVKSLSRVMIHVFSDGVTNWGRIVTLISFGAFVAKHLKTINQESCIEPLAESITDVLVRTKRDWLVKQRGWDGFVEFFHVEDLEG

In test [3] the target is T1, His6-MCL1 (human MCL1 residues 163-326). Put plainly: pull-down; in vitro pulldown of recombinant P18, P16, truncated and chimeric proteins (IP) with recombinant MCL1 (IB). To be noted: both partners purified.

For `CC1(C)CCC(CN2CCN(c3ccc(C(=O)NS(=O)(=O)c4ccc(NCC5CCOCC5)c([N+](=O)[O-])c4)c(Oc4cnc5[nH]ccc5c4)c3)CC2)=C(c2ccc(Cl)cc2)C1` [ABT-199], the “impact on sub-G1 cell population” value in test [1] (WAC2, MCL1 overexpressed, BH3 mimetic 18 h) was “more significant impact on the sub-G1 cell population”. In addition, in test [1], the “effect on MCL1 overexpression induced decrease in G1 population” value is “no impact on the change in G1 population”.
Regarding `Cc1c(-c2c(-c3ccc(F)o3)sc3ncnc(O[C@H](Cc4ccccc4OCc4ccnn4CC(F)(F)F)C(=O)O)c23)ccc(OCCN2CCN(C)CC2)c1Cl` [S63845], in test [1], the “effect on MCL1 overexpression induced decrease in G1 population” value is given as “rescued the MCL1 overexpression induced decrease in G1 population back to control levels”. The “disruption of P18 pulldown of MCL1” value in the test with recombinant MCL1 (rMCL1) (recombinant P18 (IP) with rMCL1 (IB) with and without MCL1 inhibitor, Fig. 2c) was “suppressed the ability of P18 to pull-down MCL1”.
Consider “P18 12-mer peptide (P18 rBH3) (from UniProt P42773 150-161)”, for which, in test [2], the IC50 (in general, the concentration needed to halve the response being measured) was 2500 nM.

B1: P18 rBH3 peptide with alanine substitution of E151 (peptide)
chain: CDLARLYGRNAVVSLMQANGA
modifications: not fully specified (C-terminus)
The molecule B1 yielded an IC50 in test [2] (both partners purified) greater than 30000 nM.

B2: P18 rBH3 peptide with alanine substitution of M156 (peptide)
chain: CDLARLYGRNEVVSLAQANGA
modifications: not fully specified (C-terminus)
In test [2] (both partners purified), B2 showed an IC50 greater than 30000 nM.

B3: ANK1–4: P18 residues 1–140, truncation that removes the rBH3-containing fifth ankyrin repeat (protein)
chain: MAEPWGNELASAAARGDLEQLTSLLQNNVNVNAQNGFGRTALQVMKLGNPEIARRLLLRGANPDLKDRTGFAVIHDAARAGFLDTLQTLLEFQADVNIEDNEGNLPLHLAAKEGHLRVVEFLVKHTASNVGHRNHKGDTA
modifications: left off: His6, N-terminal, state not stated
notes: P18 residues 1–140, truncation that removes the rBH3-containing fifth ankyrin repeat
Take B3: the “pull-down of recombinant MCL1” value with recombinant MCL1 (rMCL1) was “showed no interaction”.

B4: P18 21-mer peptide (P18 residues 141-161) (peptide, UniProt P42773 141-161, looked up)
peptide: CDLARLYGRNEVVSLMQANGA
notes: Human P18 (P18INK4C), residues 141-161, holding the rBH3 motif (150-161); Made on rink amide MBHA resin, so the C-terminus is probably an amide (surmised); also called P18x peptides; source: synthetic peptide
B4 showed an IC50 in test [2] (both partners purified) of 778 nM.

B5: Chimeric protein of P16-ANK1-3 and P18-ANK4-5 (P16 residues 1-113 and P18 residues 106-168) (other, human, UniProt P42771 1-113, looked up)
chain: MEPAAGSSMEPSADWLATAAARGRVEEVRALLEAGALPNAPNSYGRRPIQVMMMGSARVAELLLLHGAEPNCADPATLTRPVHDAAREGFLDTLVVLHRAGARLDVRDAWGRLPLHLAAKEGHLRVVEFLVKHTASNVGHRNHKGDTACDLARLYGRNEVVSLMQANGAGGATNLQ
notes: Human P18 (P18INK4C), residues 106-168 (ankyrin repeats 4-5 with the rBH3 motif); also called AC; chimera; source: E. coli BL21(DE3), recombinant
On to B5, for which the binding result in test [3] is listed as “binds”.

B6: chimera: chimeric protein consisting of P16-ANK1–3 and P18-ANK4–5 (P16 residues 1–113 and P18 residues 106–168) (protein)
chain: B5 chain
modifications: left off: His6, N-terminal, state not stated
Regarding B6, the “pull-down of recombinant MCL1” value in the test on recombinant MCL1 (rMCL1) is “gained the ability to pulldown recombinant MCL1”.

B7: P18-ANK4-5 (P18 residues 106-168) (domain or fragment, human, UniProt P42773 106-168, looked up)
chain: PLHLAAKEGHLRVVEFLVKHTASNVGHRNHKGDTACDLARLYGRNEVVSLMQANGAGGATNLQ
notes: Human P18 (P18INK4C), residues 106-168: ankyrin repeats 4 and 5, with the rBH3 motif; also called A4-5; source: E. coli BL21(DE3), recombinant
B7: in test [3], the binding result was “binds”.

B8: ANK4–5: P18 residues 106–168, retains the rBH3 domain and ankyrin repeat 4 (protein)
chain: B7 chain
modifications: left off: His6, N-terminal, state not stated
As to B8, the “pull-down of recombinant MCL1” value in the test on recombinant MCL1 (rMCL1) is “successfully pulled down MCL1”.

B9: P18 protein (human P18INK4C residues 1-168), recombinant (natural protein, UniProt P42773 1-168, looked up)
chain: MAEPWGNELASAAARGDLEQLTSLLQNNVNVNAQNGFGRTALQVMKLGNPEIARRLLLRGANPDLKDRTGFAVIHDAARAGFLDTLQTLLEFQADVNIEDNEGNLPLHLAAKEGHLRVVEFLVKHTASNVGHRNHKGDTACDLARLYGRNEVVSLMQANGAGGATNLQ
notes: Human P18 (P18INK4C, CDKN2C), residues 1-168, called full-length P18 protein in the results; The purification of this protein is not described; only that of His6-MCL1 is; also called CDKN2C; full-length P18 protein; source: E. coli BL21(DE3), recombinant
With B9, the IC50 in test [2] (both partners purified) came out at 113 nM.

B10: P18^INK4C: human P18 [Uniprot: P42773] (residues 1–168), His6-tagged recombinant protein (protein)
chain: B9 chain
modifications: left off: His6, N-terminal, state not stated
notes: human P18 [Uniprot: P42773]; (residues 1–168), His6-tagged recombinant protein
Turning to B10, the “pull-down of recombinant MCL1” value in the test on recombinant MCL1 (rMCL1) is “successfully pulled down MCL1”.

B11: P16: recombinant P16 [Uniprot: P42771] (residues 1–156), negative control (protein)
chain: MEPAAGSSMEPSADWLATAAARGRVEEVRALLEAGALPNAPNSYGRRPIQVMMMGSARVAELLLLHGAEPNCADPATLTRPVHDAAREGFLDTLVVLHRAGARLDVRDAWGRLPVDLAEELGHRDVARYLRAAAGGTRGSNHARIDAAEGPSDIPD
modifications: left off: His6, N-terminal, state not stated
notes: recombinant P16 [Uniprot: P42771]; (residues 1–156), negative control
Turning to B11, the “pull-down of recombinant MCL1” value in the test with recombinant MCL1 (rMCL1) was “showed no interaction”.
